Source: patent publication US20200270319A1 (KOLON TISSUEGENE, published 2020)

Target: Recombinant human PTEN protein (human, UniProt P60483 1-403 (dog entry))
Assay: cell-based or functional assay

Sequence of Recombinant human PTEN protein (P60483 whole entry): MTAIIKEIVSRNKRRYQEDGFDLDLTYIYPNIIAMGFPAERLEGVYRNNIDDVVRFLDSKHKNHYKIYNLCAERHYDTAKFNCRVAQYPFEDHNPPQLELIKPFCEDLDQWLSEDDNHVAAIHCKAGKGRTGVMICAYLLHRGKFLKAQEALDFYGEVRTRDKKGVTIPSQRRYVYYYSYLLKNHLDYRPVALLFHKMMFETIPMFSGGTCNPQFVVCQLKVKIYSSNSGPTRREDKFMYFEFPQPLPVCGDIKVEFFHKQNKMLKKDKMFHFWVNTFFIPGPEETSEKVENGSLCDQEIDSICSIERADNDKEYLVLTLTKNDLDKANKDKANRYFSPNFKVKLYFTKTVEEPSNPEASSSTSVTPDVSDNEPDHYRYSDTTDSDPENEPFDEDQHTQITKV

- IC50, in vitro PTEN activity assay (lipid phosphatase, C8-PIP3 liposome, Malachite Green): 87.1 µM
- PTEN activity remaining with 10 µM peptide, compared with positive control: 86%
Binder: RRRRRRRRHYRYVDTTDVDPENEPFDEDQHTQITKV (C-terminal amide) [TGN-3 peptide]
